According to publication doi:10.1101/2022.04.11.487887 (bioRxiv, 2022):
Values belong to the molecule of their own block, whether it stands above or below them. No end group written: not given here.

Assays:
[1] = target: Halo-Xenopus γTuNA-GCN4 L77A (Xenopus laevis | yeast); experiment: SEC
[2] = target: Strep-His-Halo-3C-Xenopus γTuNA I67A (Xenopus laevis); experiment: pull-down
[3] = target: Strep-His-Halo-3C-Xenopus γTuNA L70A (Xenopus laevis); experiment: pull-down
[4] = target: Strep-His-TEV-HaloTag-3C-Xenopus γTuNA (Xenopus laevis); experiment: pull-down
[5] = target: Halo-3C-AU1 reporter tagged human γTuNA, after PreScission (3C) cleavage (human); experiment: co-sedimentation
[6] = target: Halo-Xenopus γTuNA-GCN4 wildtype (Xenopus laevis | yeast); experiment: SEC
[7] = target: Halo-Xenopus γTuNA-GCN4 F75A (Xenopus laevis | yeast); experiment: SEC
[8] = target: Halo-Xenopus γTuNA-GCN4 I67A (Xenopus laevis | yeast); experiment: SEC
[9] = target: Halo-Xenopus γTuNA-GCN4 L70A (Xenopus laevis | yeast); experiment: SEC
SEC = target: the molecule itself; experiment: SEC

Chain of Xenopus γ-tubulin ring complex (γTuRC) (Q5U4M5 whole entry, looked up): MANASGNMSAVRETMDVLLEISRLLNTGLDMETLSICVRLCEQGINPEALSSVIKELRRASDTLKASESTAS
Chain of Xenopus γ-tubulin ring complex (γTuRC) (P23330 whole entry, looked up): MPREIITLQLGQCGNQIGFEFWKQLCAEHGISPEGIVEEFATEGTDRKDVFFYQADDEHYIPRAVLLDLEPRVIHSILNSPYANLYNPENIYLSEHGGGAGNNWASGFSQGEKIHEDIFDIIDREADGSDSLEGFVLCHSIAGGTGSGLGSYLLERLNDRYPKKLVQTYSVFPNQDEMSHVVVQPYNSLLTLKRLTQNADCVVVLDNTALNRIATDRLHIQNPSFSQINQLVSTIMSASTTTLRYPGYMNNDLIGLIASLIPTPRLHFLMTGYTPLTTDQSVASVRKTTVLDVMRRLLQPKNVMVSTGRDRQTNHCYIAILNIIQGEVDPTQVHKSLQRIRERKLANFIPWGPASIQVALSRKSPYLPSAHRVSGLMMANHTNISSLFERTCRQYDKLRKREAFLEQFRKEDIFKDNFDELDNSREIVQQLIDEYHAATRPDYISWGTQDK

stoichiometry N [1]: 2
Molecule: Halo-Xenopus γTuNA-GCN4 L77A

percent of the wildtype's γTuRC binding [2]: 85%
percent of the wildtype's γTuRC binding [3]: 50%
percent of γ-tubulin signal lost from the extract after one round of depletion [4]: > 75%
percent of purified γTuRCs that lost their γTuNA dimer [5]: 66%
Molecule: Xenopus γ-tubulin ring complex (γTuRC) (from UniProt P23330 1-451; Q5U4M5 1-72)

stoichiometry N [6]: 2
Molecule: Halo-Xenopus γTuNA-GCN4 wildtype

stoichiometry N [7]: 2
Molecule: Halo-Xenopus γTuNA-GCN4 F75A

stoichiometry N [8]: 2
Molecule: Halo-Xenopus γTuNA-GCN4 I67A

stoichiometry N [9]: 2
Molecule: Halo-Xenopus γTuNA-GCN4 L70A

Molecule: MKDFEKQIAELKKENFNLKLRIYFLEEQVQQKCDNSSEDLYRMNIE (domain or fragment, Xenopus laevis, not fully specified (N-terminus)) [Strep-His-TEV-HaloTag-3C-Xenopus γTuNA]
stoichiometry N (SEC): 2

Molecule: MKDFEKQIAELKKENFNAKLRIYFLEEQVQQKCDNSSEDLYRMNIE (domain or fragment, Xenopus laevis, not fully specified (N-terminus)) [Strep-His-Halo-3C-Xenopus γTuNA L77A]
binding result (SEC): binds

Molecule: MKDFEKQIAELKKENANLKLRIYFLEEQVQQKCDNSSEDLYRMNIE (domain or fragment, Xenopus laevis, not fully specified (N-terminus)) [Strep-His-TEV-HaloTag-3C-Xenopus γTuNA F75A]
binding result (SEC): binds

Molecule: MKDFEKQIAEAKKENFNLKLRIYFLEEQVQQKCDNSSEDLYRMNIE (domain or fragment, Xenopus laevis, not fully specified (N-terminus)) [Strep-His-Halo-3C-Xenopus γTuNA L70A]
binding result (SEC): binds

Molecule: MKDFEKQAAELKKENFNLKLRIYFLEEQVQQKCDNSSEDLYRMNIE (domain or fragment, Xenopus laevis, not fully specified (N-terminus)) [Strep-His-Halo-3C-Xenopus γTuNA I67A]
binding result (SEC): binds

Molecule: MKDAEKQIAELKKENFNLKLRIYFLEEQVQQKCDNSSEDLYRMNIE (domain or fragment, Xenopus laevis, not fully specified (N-terminus)) [Strep-His-Halo-3C-Xenopus γTuNA F63A]
binding result (SEC): binds

Molecule: SPTRARNMKDFENQITELKKENFNLKLRIYFLEERMQQEFHGPTEH (domain or fragment, not fully specified (N-terminus)) [Strep-His-TEV-HaloTag-3C-human γTuNA]
stoichiometry N (SEC): 2
